{
  "source": "patent US20230270832A1",
  "about": "“MAGEA1 IMMUNOGENIC PEPTIDES, BINDING PROTEINS RECOGNIZING MAGEA1 IMMUNOGENIC PEPTIDES, AND USES THEREOF” (TScan Therapeutics, Inc., priority 2021, published 2023)",
  "key": {"[1]": {"target": "T1, epitope from MAGEA1 presented by HLA C*07:02 (Homo sapiens, UniProt P10321+P43355, DEL298-309)", "T1 construct": "an individual 90-amino acid fragments representing the top-scoring MAGEA1 tile from the screen; expressed in transfected cells; host or cells: MHC monoallelic C*07:02 HEK293T cells, lentivirally transduced with the MAGEA1 90-mer", "assay": "Identification of MAGEA1-reactive TCRs from pool of TCR-transduced T cells (CD137/CD69 sorting, TCR sequencing)", "assay_type": "cell-based", "conditions": "target cells transduced with MAGEA1 90-mer", "from_the_text": "Ten orphan TCRs from this patient were pooled together to identify their cognate antigens using the genome-wide TargetScan technology. This screen identified MAGEA1 as a novel target. […] Note that the term “TCR32-39” may also be known as “TCR39” and the term “TCR32-41” may also be known as “TCR41”.\nTo identify the corresponding TCR from the pool of TCR-transduced T cells, Ml-IC monoallelic C*07:02 HEK293T cells engineered to express the MAGEA1 90mer were co-cultured with the pool of T cells at an E:T ratio of 1:1 for 16-24 hours. The T cells were mixed, collected by pipetting, and labeled with a CD137 microbead kit (Miltenyi) following the manufacturer's instructions. In brief, T cells were first stained with PE-labeled anti-CD137 and AF647-labeled anti-CD69 (BioLegend), washed, and then labeled with anti-PE microbeads. Labeled cells were enriched with an autoMACS® Pro separator (Miltenyi) and CD137 and CD69 double-positive cells were sorted on a MoFlo® Astrios™ Cell Sorter (Beckman Coulter). Genomic DNA was extracted from the sorted cells and the TCR expression cassette was PCR amplified and prepared for next generation sequencing (NGS)."}, "[2]": {"system": "cancer cells that express MAGEA1", "assay": "T cell recognition assay on cancer cell lines", "assay_type": "cell-based, human", "conditions": "IFNγ release, CD137/CD69 double-positive staining", "description": "To detect reactivity to cancer cell lines, wild-type cancer cell lines were seeded in a 96-well flat bottom plate and rested overnight at 37° C. in 5% CO2. On the following day, T cells were thawed, washed in complete RPMI-1640 medium, and added to the wells for an effector to target (E:T) ratio of 1:1 for INFγ measurement or 1:4 for flow cytometry analysis of activation-induced markers. The co-culture was incubated overnight. Cells were then harvested by pipetting, transferred to V-bottom 96-well plates, and centrifuged at 2,000 rpm for 2 minutes. The supernatant was collected for IFNγ measurement using a human IFNγ 3rd generation single-plex assay (Protein Simple). For flow cytometry analysis (Cytoflex S™ instrument, Beckman Coulter), cell pellets were washed with FACS buffer (PBS, 0.5% BSA, 2 mM EDTA) and stained for activation-induced markers, including PE-conjugated anti-CD137 (Miltenyi), AF647-conjugated anti-CD69 (Biolegend), and BV421-conjugated anti-CD8 (BioLegend).\n(§1) Cancer cell lines were purchased from ATCC (Manassas, Vα.) and HEK293T cells were originally from Takara Bio (Shiga, Japan). All media were supplemented with […], except U266B1 which required 15% FBS, and 1% penicillin and incubated at 37° C. in 5% CO2. A101D (high MAGE-A1 expresing cells; TPM: 359), A2058 (medium MAGE-A1 expresing cells; TPM: 128), HS294T, and HEK293T cells were maintained in complete DMEM. SK-MEL-5 was cultured in complete EMEM, whereas U266B1, NCIH1437 and 786-0 required complete RPMI. Untransduced cancer cells were maintained in preparation for the T cell recognition assay, and 10^6 cells of each cell line were introduced with Incucyte® NucLight™ Red lentivirus reagent (Sartorius, Gottingen, Germany) Positively-labeled cells were selected using 1.5 ug/mL of puromycin over 72 hours."}, "[3]": {"system": "cell lines with low to zero MAGEA1 expression", "assay_type": "cell-based, human", "description": "as §1\nCancer cells selected for Incucyte® NucLight™ analysis were seeded into 96-well flat bottom plates (Corning, Flintshire, UK) at 10^4 cells. On the same day, T cells were thawed, washed in complete RPMI-1640, and allowed to rest overnight in medium with 50 U/mL IL-2 (PeproTech), 5 ng/mL IL-7, and 5 ng/mL IL-15 (R&D Systems). All cells were rested overnight at 37° C. in 5% CO2. […] Imaging utilized a 4x objective lens and data were analyzed using the Incucyte® Basic Software. […]"}, "[4]": {"system": "primary cells from healthy HLA-C*07:02+ human donors", "assay": "Co-culture with normal primary cells, IFNγ secretion", "assay_type": "cell-based", "conditions": "pan T cells, non-pulsed primary cells vs MAGE-A1 peptide pulsed", "from_the_text": "Primary normal cells from C*07:02+ donors that were expanded, confirmed to maintain differentiation states, and frozen were obtained (Lonza). Tested samples include: Human umbilical vein endothelial cells (HUVEC (CC-2517)), lung small airway epithelial cells (SAEC (CC-2547)) and lung bronchial-tracheal epithelial cells (NHBE (CC-2540)).\nPrior to co-culture assays, primary normal cells were thawed, washed, resuspended in RPMI media supplemented with IL-2, IL-7, and IL-15 and seeded in 96-well flat-bottom culture plates at a density of 200,000 cells/well and allowed to rest for 4 hours. Cells were pulsed with MAGE-A1 peptide for 1-2 hours or left un-pulsed in their respective media. HN-32-41 or untransduced (NTD) T cells were then added at a density of 100,000 cells/well in complete T cell media. 24 hours post co-culture, supernatants were collected and frozen at −80° C.). Supernatants were thawed and analyzed for IFN-γ levels by loading on a Simple Plex Human IFN-gamma (3rd Gen) Cartridge (ProteinSimple, San Jose, Calif.) using the Ella™ instrument.\nFor flow cytometry analysis (Cytoflex S™ instrument, Beckman Coulter), cell pellets were washed with FACS buffer (PBS, 0.5% BSA, 2 mM EDTA) and stained for activation-induced markers, including PE-conjugated anti-CD137 (Miltenyi), AF647-conjugated anti-CD69 (Biolegend), and BV421-conjugated anti-CD8 (BioLegend)."}},
  "data": [
    {"molecule": "TCR 32-41: T cell receptor recognizing MAGEA1 epitope presented by HLA-C*07:02; alpha TRAV27/TRAJ52, beta TRBV12-4/TRBJ1-4; wild type, HM and MGTM sequences listed (protein) TCR alpha: QLLEQSPQFLSIQEGENLTVYCNSSSVFSSLQWYRQEPGEGPVLLVTVVTGGEVKKLKRLTFQFGDARKDSSLHITAAQPGDTGLYLCAGDESISYGKLTFGQGTILTVHPNIQNPEPAVYQLKDPRSQDSTLCLFTDFDSQINVPKTMESGTFITDKCVLDMKAMDSKSNGAIAWSNQTSFTCQDIFKETNATYPSSDVPCDATLTEKSFETDMNLNFQNLLVMVLRILLLKVAGFNLLMTLRLWSS TCR beta: DAGVIQSPRHEVTEMGQEVTLRCKPISGHDYLFWYRQTMMRGLELLIYFNNNVPIDDSGMPEDRFSAKMPNASFSTLKIQPSEPRDSAVYFCASSFLGWNEKLFFGSGTQLSVLEDLRNVTPPKVSLFEPSKAEIANKQKATLVCLARGFFPDHVELSWWVNGKEVHSGVCTDPQAYKESNYSYCLSSRLRVSATFWHNPRNHFRCQVQFHGLSEEDKWPEGSPKPVTQNISAEAWGRADCGITSASYQQGVLSATILYEILLGKATLYAVLVSTLVVMAMVKRKNS", "values": [
      {"measurement": "recognition of MAGEA1 epitope / identification as MAGEA1-reactive TCR", "setting": "[1]; listed as HN-32-41", "value": "recognizing the same novel epitope from MAGEA1 presented by HLA C*07:02"},
      {"measurement": "recognition of MAGEA1 epitope / identification as MAGEA1-reactive TCR", "setting": "[1]; listed as TCR 41", "value": "hits"},
      {"measurement": "recognition of cancer cells", "setting": "[2]", "value": "recognize cancer cells that express MAGEA1"},
      {"measurement": "recognition of cancer cells", "setting": "[2]; listed as TCR 41", "value": "recognize"},
      {"measurement": "cytotoxic activity (killing) on cell lines with low to zero MAGEA1", "setting": "[3]", "value": "does not kill cell lines with low to zero MAGEA1 expression"},
      {"measurement": "reactivity to normal human cells (IFNγ secretion in culture supernatants)", "setting": "[4]", "value": "does not show reactivity to normal human cells"},
      {"measurement": "reactivity to normal human cells (IFNγ secretion in culture supernatants)", "setting": "[4]; listed as TCR41", "value": "did not react with healthy human primary cells"}
    ]}
  ]
}
